From EP4790070A1 (Daegu Gyeongbuk Institute of Science and Technology, dated 2026)
Blank lines part the entries; values can stand above or below the binder they belong to.

Target: T1, human CD24 on human cancer cell lines (MCF7, A549, Huh7) (human, UniProt P25063 27-59)
T1 construct: whole, on cells; Endogenous CD24 on cancer cell lines
T1 chain (looked up): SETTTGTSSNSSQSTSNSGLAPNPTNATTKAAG
Experiment: flow cytometry on fixed MCF-7 cells, FITC anti-human IgG

binding result: binds
B1: anti-CD24 antibody #1 (Fc fusion)
VH: MAQVQLLESGGGVVQPGRSLRLSCAASGFTFSSYGMHWVRQAPGKGLEWVSGMSGDGLATYYADSVKGRFTISRDNSKNTLYLQMNSLRAEDTAVYYCARDSSSWYGGYYYYYGMDVWGQGTTVTVSSGS
VL: DIQMTQSPSSVSASVGDRVTITCRASQGISSWLAWYQQKPGKAPKLLIYAASSLQSGVPPRFSGSGSGTDFTLTISSLQPEDFATYYCQQSYSTPLTFGGGTKVEIKR
notes: also called Candidate 1; αCD24 antibody (#1)

binding result: binds
B2: anti-CD24 antibody #2 (Fc fusion)
VH: MAQVQLVQSGGGLIQPGGSLRLSCAASGFTVSSNYMSWVRQAPGKGLEWVSVIYSGGSTYYADSVKGRFTISRDNSKNTLYLQMNSLRAEDTAVYYCAREYGDYFDYWGQGTLVTVSSGS
VL: QSALTQPASVSGSPGQSITISCTGTSSDVGGYDHVSWYQQHPGKAPKLMIYEVTKRPSGVSDRFSGSKSGNTASLTISGLQADDEADYYCSSYAGSNSVLFGGGTQLTVLG
notes: also called Candidate 2
